From patent US20090169546A1

Molecular target: HMG1 purified from calf (bovine) thymus (calf (bovine)) (UniProt P10103)
Assay: cell-based or functional assay

Sequence of HMG1 purified from calf (bovine) thymus (calf (bovine)) (P10103 2-215 limits assumed): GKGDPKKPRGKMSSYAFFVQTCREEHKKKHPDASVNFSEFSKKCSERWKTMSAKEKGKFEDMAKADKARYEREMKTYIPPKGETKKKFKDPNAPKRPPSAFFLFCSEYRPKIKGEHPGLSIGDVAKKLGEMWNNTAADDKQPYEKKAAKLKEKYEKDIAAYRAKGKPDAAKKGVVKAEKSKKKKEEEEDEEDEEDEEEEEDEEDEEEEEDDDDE

IFN-a release from mouse bone marrow cells treated with CpG-A and thymus HMG1: > 95%
Substance: RAGE-Fc fusion protein
